Data as given in article PMC3436766, “Distinct and Contrasting Transcription Initiation Patterns at Mycobacterium tuberculosis Promoters”.

Assays:
[1] = target: T1, RNA polymerase holoenzyme with sigma A (RNAP-σA) (Mycobacterium smegmatis SM07, UniProt A0QSL8;P60281;A0QS66;A0QWT1;A0QW02 1-350;1-1169;1-1317;1-107;1-466); assay: EMSA; conditions: protein: native; chain copies: 2;1;1;1;1; label: 5'-32P on one strand; blunt
[2] = target: T1, RNA polymerase holoenzyme with sigma A …; assay: EMSA; closed complex (KB), on ice 20 min; conditions: protein: native; chain copies: 2;1;1;1;1; label: 5'-32P on one strand; blunt

B1: PgyrB1 (dsDNA)
DNA 1: GGTAAAAACGAGGCCGAGCACTCGGCCCTGGCGCCCGATCACGGTACAGTGGTGTGCGACCCCCTGCGGCGACTC
DNA 2: GAGTCGCCGCAGGGGGTCGCACACCACTGTACCGTGATCGGGCGCCAGGGCCGAGTGCTCGGCCTCGTTTTTACC
In the case of B1, the Kd [1] is reported as 68 ± 12.2 x 10^7 M (as printed; exponent implausible, probably nM) and the Ka [2] is reported as 2.1 ± 0.03 10^7 M^-1.
